# How the values were obtained:
# KOR N336^8.49A (human) = KOR N336^8.49A (human) (UniProt P41145)
# [1] = target: BRIL-wt-KOR(54–368) reconstituted into nanodiscs (human) (UniProt P41145)
# [2] = target: κ-opioid receptor in homogenous membrane fractions expressing KOR (human) (UniProt P41145)
# KOR R156^3.50A (human) = KOR R156^3.50A (human) (UniProt P41145)
substance,measurement,setting,value
wild-type GoA heterotrimeric G protein (from UniProt P09471 1-354; P62873 1-340; P59768 1-71) (complex),"loss in potency of agonist-mediated GoA coupling against wild-type KOR, BRET2",KOR N336^8.49A (human),14 fold
same,"fold increase of the high-affinity binding sites (Bmax) for the agonist radioligand ^3H-U69,593 in saturation binding, with 1 μM G protein against KOR alone",[1],38 fold
wild-type Gi1 heterotrimeric G protein (from UniProt P63096 1-354; P62873 1-340; P59768 1-71) (complex),"loss in potency of agonist-mediated Gi1 coupling against wild-type KOR, BRET2",KOR N336^8.49A (human),2 fold
same,"fold increase of the high-affinity binding sites (Bmax) for the agonist radioligand ^3H-U69,593 in saturation binding, with 1 μM G protein against KOR alone",[1],62 fold
wild-type Gg (gustducin) heterotrimeric G protein (from UniProt A8MTJ3 1-354; P62873 1-340; P59768 1-71) (complex),"efficacy of GR89,696-mediated Gg activation, BRET2, normalized to U50,488",[2],103%
same,"efficacy of momSalB-mediated Gg activation, BRET2, normalized to U50,488",[2],106%
same,"efficacy of GR89,696-mediated Gg activation, BRET2, normalized to U50,488",KOR R156^3.50A (human),46%
same,"efficacy of momSalB-mediated Gg activation, BRET2, normalized to U50,488",KOR R156^3.50A (human),38%
same,"fold increase of the high-affinity binding sites (Bmax) for the agonist radioligand ^3H-U69,593 in saturation binding, with 1 μM G protein against KOR alone",[1],7 fold
wild-type Gz heterotrimeric G protein (from UniProt P19086 1-355; P62873 1-340; P59768 1-71) (complex),"loss in potency of agonist-mediated Gz coupling against wild-type KOR, BRET2",KOR N336^8.49A (human),9 fold
same,"fold increase of the high-affinity binding sites (Bmax) for the agonist radioligand ^3H-U69,593 in saturation binding, with 1 μM G protein against KOR alone",[1],14 fold

# From publication PMC10172140
